The series deals with the molecule itself. Nature of the series: oligomer pelleting by centrifugation with UV absorbance of the supernatant.

B1: RAGE VC1 (tandem V and C1 domains of the receptor for advanced glycation end products) (domain or fragment, human)
chain: AQNITARIGEPLVLKCKGAPKKPPQRLEWKLNTGRTEAWKVLSPQGGGPWDSVARVLPNGSLFLPAVGIQDEGIFRCQAMNRNGKETKSNYRVRVYQIPGKPEIVDSASELTAGVPNKVGTCVSEGSYPAGTLSWHLDGKPLVPNEKGVSVKEQTRRHPETGLFTLQSELMVTPARGGDPRPTFSCSFSPGLPRHRALRTAPIQPRVWEPVPLEEVQL
As for B1, the equilibrium dissociation constant (Kd) (commonly the concentration at which binding is half-saturated) was 3.8 ± 1.3 µM.

The record behind these values is PMC4250094 (Structure (London, England : 1993), 2010).
